Measurements reported in publication PMC8971729.

What was measured:
CAR on CHO-CAR cells = CAR on CHO-CAR cells (UniProt P78310); test: flow cytometry on cells; CHO-CAR cells with serial dilutions of knob protein (0.0001-100 ug/10^5 cells) for 1 h on ice, washed, then stained for CAR with anti-CAR (RmcB) and a labelled secondary antibody; IC50 by non-linear regression; apparent
[1] = target: Human desmoglein-2 Fc chimera protein (DSG2) (human) (UniProt Q14126); test: SPR; BIAcore 3000; DSG2-Fc, CAR-Fc and CD46-His (approximately 500 RU) coupled to a CM5 chip; knob protein injected (178 uM, 5x 1:3 dilutions; single-cycle kinetics from 200 uM); 30 uL/min, PBS, 25 °C; equilibrium KD assuming 1:1 Langmuir binding
[2] = target: human CD46 protein (His tag) (human) (UniProt P15529); test: as above
[3] = target: human CXADR Fc chimera protein (CAR) (human) (UniProt P78310); test: as above
Sequence of human CXADR Fc chimera protein (CAR) (human) (P78310 20-237, change not shown): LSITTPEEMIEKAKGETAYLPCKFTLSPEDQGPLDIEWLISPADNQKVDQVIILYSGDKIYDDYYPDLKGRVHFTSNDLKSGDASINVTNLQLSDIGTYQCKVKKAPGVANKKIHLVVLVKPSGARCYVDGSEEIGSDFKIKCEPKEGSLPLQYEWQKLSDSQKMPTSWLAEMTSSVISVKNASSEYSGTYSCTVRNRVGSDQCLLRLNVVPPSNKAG

Sequence of CAR on CHO-CAR cells (P78310 20-365): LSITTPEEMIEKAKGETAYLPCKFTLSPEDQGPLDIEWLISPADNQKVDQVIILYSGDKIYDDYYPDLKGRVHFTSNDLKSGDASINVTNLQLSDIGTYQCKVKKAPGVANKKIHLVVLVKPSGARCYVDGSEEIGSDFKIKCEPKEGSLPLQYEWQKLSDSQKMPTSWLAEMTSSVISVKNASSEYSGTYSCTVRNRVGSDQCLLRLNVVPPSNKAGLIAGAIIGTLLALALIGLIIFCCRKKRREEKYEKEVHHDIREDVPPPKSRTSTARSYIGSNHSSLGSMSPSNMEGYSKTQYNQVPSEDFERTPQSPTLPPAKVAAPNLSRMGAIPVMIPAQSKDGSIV
Sequence of human CD46 protein (His tag) (human) (P15529 35-343): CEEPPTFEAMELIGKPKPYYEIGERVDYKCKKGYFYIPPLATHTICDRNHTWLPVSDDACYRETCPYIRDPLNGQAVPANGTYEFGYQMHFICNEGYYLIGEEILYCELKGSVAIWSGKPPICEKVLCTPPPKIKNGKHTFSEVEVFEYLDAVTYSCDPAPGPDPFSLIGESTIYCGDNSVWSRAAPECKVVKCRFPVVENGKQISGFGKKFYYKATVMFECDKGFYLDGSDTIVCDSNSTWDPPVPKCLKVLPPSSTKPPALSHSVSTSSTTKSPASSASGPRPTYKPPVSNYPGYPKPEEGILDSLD
Sequence of Human desmoglein-2 Fc chimera protein (DSG2) (human) (Q14126 50-609, change not shown): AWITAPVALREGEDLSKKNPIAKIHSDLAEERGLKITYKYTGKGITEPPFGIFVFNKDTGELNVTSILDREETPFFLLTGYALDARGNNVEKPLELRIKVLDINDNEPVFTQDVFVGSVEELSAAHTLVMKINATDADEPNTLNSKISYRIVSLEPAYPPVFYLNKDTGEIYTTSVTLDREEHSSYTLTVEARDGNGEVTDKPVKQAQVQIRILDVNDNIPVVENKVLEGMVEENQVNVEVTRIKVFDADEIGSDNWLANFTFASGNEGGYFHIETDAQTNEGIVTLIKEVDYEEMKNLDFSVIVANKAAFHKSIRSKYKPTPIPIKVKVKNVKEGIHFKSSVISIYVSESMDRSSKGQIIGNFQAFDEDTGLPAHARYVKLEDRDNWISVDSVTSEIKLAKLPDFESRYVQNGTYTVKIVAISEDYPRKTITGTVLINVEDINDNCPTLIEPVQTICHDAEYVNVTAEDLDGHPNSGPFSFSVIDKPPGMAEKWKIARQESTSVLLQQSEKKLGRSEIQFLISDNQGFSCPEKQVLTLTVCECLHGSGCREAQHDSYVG

Substance: HAdV-D10 fiber knob protein (domain or fragment)
- fold lower apparent affinity than HAdV-C5K (by IC50) (CAR on CHO-CAR cells): 16.5 fold
- Kd [1]: 125 µM
- Kd [2]: 20 µM
- Kd [3]: 0.44 µM
